We go through 167 variants from the RNAGym collection of RNA variant scans (doi:10.7554/elife.80360).

B1: Twister Ribozyme (parent)
chain: AACACUGCCAAUGCCGGUCCCAAGCCCGGAUAAAAGUGGAGGGGGCGG

The variants in this data set derive from B1. Kind of data set: self-cleavage, relative activity (ratio to wild type); higher = more cleavage; co-transcriptional.
Regarding C25U A40C, the self-cleavage worked out at 0.109. As for C25U A40U, the self-cleavage was found to be 0.0985. As for C25U A33U, the figure is 0.822; as for C25U A33G, 0.853; as for C25G G44A, 0.514.

Turning to C25U G48A, the self-cleavage is 0.559. As to C25U G48C, the self-cleavage was found to be 0.881.

G24A C25U: the self-cleavage was 0.0836. G24A C25A: the self-cleavage was found to be 0.115. Take C25G A34C: the self-cleavage was found to be 0.115. For the variant C25G A34U, the self-cleavage is 0.158.

On to C25A A34C, for which the self-cleavage came out at 0.0515.

Turning to G24U A32C, the self-cleavage was 0.113.

Consider C25G U31C, for which the self-cleavage is 0.404.

In the case of C25G U31A, the self-cleavage came to 0.482. As for C25A G41U, the figure is 0.0916. As for A23U A33G, the figure is 0.18; as for A23U A33C, 0.186; as for C26A G45U, 0.136.

Regarding C26A G45A, the self-cleavage stood at 0.258. As for C25G G45C, the figure is 0.143; as for C25G G45A, 0.132. With C25G G45U the figure was 0.145; with C25A G38U, 0.0853; with C25G U37A, 0.166. Turning to C25G U37G, the self-cleavage was 0.104.

On to A23G G45A, for which the self-cleavage was 0.332. With C25G A35G the figure was 0.0857. With C25G A35C the figure was 0.182; with G24C U37C, 0.0778; with G24C U37G, 0.12. As for C25U U31C, the figure is 0.61. On to G24A G47U, for which the self-cleavage was 0.0892. As to G24A G47A, the self-cleavage is 0.096. With G24C A35U the figure was 0.0871; with G24C A35G, 0.0669. As for A23U G42U, the figure is 0.0934; as for A23U G42C, 0.148; as for A23U G42A, 0.125. A23G G36A: the self-cleavage is 0.126.

Regarding A23G G36U, the self-cleavage worked out at 0.0865. As for C25A U37C, the figure is 0.0999; as for C25A G36A, 0.0755; as for C25A G36U, 0.0554. As to C25A G44U, the self-cleavage was 0.107.

Regarding C25A G44C, the self-cleavage turned out to be 0.111. As for C25A G44A, the figure is 0.169. As for A23U C27U, the figure is 0.305; as for C26G A33C, 0.129; as for A23G U37G, 0.17. As for A23G U37A, the figure is 0.111; as for C25U A30U, 0.932; as for C25U A30G, 0.911. In the case of A23U G45U, the self-cleavage was 0.249. For the variant A23U G45C, the self-cleavage worked out at 0.141. As for C25G G28C, the figure is 0.0925. With G24C A33G the figure was 0.101; with C25U G39C, 0.117; with C25U G39U, 0.158. With C26G A32U the figure was 0.193; with G24U A30U, 0.109; with G24U A30G, 0.111. Consider G24C A30C, for which the self-cleavage came to 0.0817. With G24C A30U the figure was 0.0977; with G24C A30G, 0.096; with C26A A33G, 0.257. As for C26A A33C, the figure is 0.359. As for C26A G28U, the figure is 0.114; as for C26A G28C, 0.48; as for C26A U31A, 0.638. For the variant C26A U31C, the self-cleavage came out at 0.7. With C25U G38C the figure was 0.847; with C25U G38U, 0.614; with G24U C27G, 0.0792.

As for G24U C27A, the self-cleavage came out at 0.106. With G24U U31G the figure was 0.13. For the variant G24U U31C, the self-cleavage is 0.13. Regarding C26A G29C, the self-cleavage came out at 0.122. With C26A G29U the figure was 0.214; with C26A G29A, 0.267. With A23G G43C the figure was 0.125; with C25G A30C, 0.129. As for C26A G39A, the figure is 0.107.

With C26A G39U, the self-cleavage was 0.116. As for G24U C46G, the self-cleavage was found to be 0.081.

Regarding C25G G47A, the self-cleavage turned out to be 0.153. Regarding C25G G47U, the self-cleavage stood at 0.155. Regarding C25G G47C, the self-cleavage was determined as 0.142.

On to G24U G41U, for which the self-cleavage worked out at 0.0892.

Regarding G24U G47C, the self-cleavage worked out at 0.131. With C25U G41C the figure was 0.147.

G24A G45U: the self-cleavage came out at 0.118. With G24A G45C the figure was 0.0846. With A23U A40G the figure was 0.0874.

On to A23U A40U, for which the self-cleavage came out at 0.0967. With C26A A32U the figure was 0.405; with C26A A32C, 0.575; with C25G C27A, 0.105. With A23G G28A the figure was 0.284; with A23U C26G, 0.101. With G24U G28U the figure was 0.0893.

As for C26A A40G, the self-cleavage was determined as 0.182. A23U U37G: the self-cleavage came out at 0.0831. With A23U U37C, the self-cleavage worked out at 0.0907. As for A23U U37A, the figure is 0.178; as for A23U A32G, 0.45; as for G24A A30G, 0.125. As for G24A A30C, the figure is 0.0875; as for G24A A30U, 0.0686. For the variant G24A G43U, the self-cleavage amounted to 0.0769.

As for C25U G44C, the self-cleavage was 0.692. As for C25G G29U, the figure is 0.651. With C25G G29C the figure was 0.109; with G24A C26U, 0.077. For C25A A30U, the self-cleavage worked out at 0.0882.

As for A23U A30C, the self-cleavage was found to be 0.115.

Turning to C25U A35C, the self-cleavage turned out to be 0.779. As for C26G A40G, the figure is 0.127; as for C25A G45U, 0.0929; as for G24A U31G, 0.105. As for C25U A34G, the self-cleavage was 0.487.

As to C25U A34C, the self-cleavage was determined as 0.0649. As for A23G G47A, the figure is 0.265; as for A23G G47C, 0.209. For the variant G24U G42U, the self-cleavage was 0.0953. In the case of G24U A40C, the self-cleavage was determined as 0.099. G24U A40U: the self-cleavage turned out to be 0.0893. With A23G G44A the figure was 0.604. As for A23G G44U, the figure is 0.458; as for C25G G38A, 0.0823. With C25G G38U the figure was 0.131; with C25A G43A, 0.0661; with C25A G43U, 0.0941.

C25A G43C: the self-cleavage was found to be 0.0876. With C25U C26A the figure was 0.0893; with G24A A34C, 0.0735; with G24A A34U, 0.0893. As for C25G C46U, the figure is 0.286; as for C25U G29U, 0.824.

As to C25U G29C, the self-cleavage worked out at 0.635. With C25U G29A the figure was 0.734; with G24C G45U, 0.119; with G24C G47U, 0.0811. With G24U G44A the figure was 0.127; with G24U G44U, 0.097. As for G24U G44C, the figure is 0.0809; as for G24U G43A, 0.0702; as for G24U G43U, 0.0757. For the variant C25A U31A, the self-cleavage amounted to 0.0924.

On to G24A C46U, for which the self-cleavage worked out at 0.107. As for G24A C46A, the figure is 0.0898.

Take C25G G41A: the self-cleavage worked out at 0.146. With C26A U37C the figure was 0.105. As for G24C C27U, the figure is 0.0994. As for A23U, the figure is 0.697; as for A23G U31G, 0.746; as for A23G U31C, 0.544. With A23G U31A, the self-cleavage was determined as 0.602. For A23G G24U, the self-cleavage turned out to be 0.063.

As to A23G G24C, the self-cleavage came out at 0.0875. As to G24A C27G, the self-cleavage came out at 0.105.

As for G24A C27A, the self-cleavage amounted to 0.0771. With C25G G36U the figure was 0.103; with G24C G29A, 0.132. As for G24C G29U, the figure is 0.0988; as for C25A C27G, 0.104; as for C25A C27U, 0.136.
